Here are results for 1 molecule from patent publication US20220064286A1 (Genentech, published 2022).

Assay [1] concerns the target T1, cynomolgus TIGIT-AviFlag-biotin (cynomolgus monkey, UniProt A0A7N9I9V4 89-209, biotin).
T1 construct: also called cyno TIGIT-AviFlag-biotin
Kind of assay: Block ELISA Cyno PVR-Fc:Bio-TIGIT-AviFlag (blocked ligand cyno PVR-Fc). As for the experimental part:
(§1) To test for the ability of the clones to block the TIGIT-PVR interaction, a blocking ELISA assay was used. Briefly, recombinant human PVR-Fc fusion protein, cynomolgus monkey PVR-Fc fusion protein, or mouse PVR-Fc fusion protein was coated at 4 μg/ml at 25 μl/well in phosphate-buffered saline (PBS, pH 7.0) onto 384-well Maxisorp microtiter plates (NUNC, Denmark) and incubated overnight at 4° C. The coating solution was then discarded and the plate was blocked using 0.5% bovine serum albumin (BSA) in PBS at 80 μl/well and incubated with gentle agitation for 1 hour. Titration curves of anti-TIGIT and Fab isotype control antibodies were diluted in assay buffer (PBS, 0.5% BSA, 0.05% Tween 20) using 12 serial 2.5-fold dilutions (40000-1.7 ng/mL). […] The plate was then washed 6× with wash buffer and bound human TIGIT-AviFlag-biotin, cyno TIGIT-AviFlag-biotin, or mouse TIGIT-His was detected by adding 25 μl/well of horseradish peroxidase-conjugated streptavidin (1:10000, Amersham, UK) or horseradish peroxidase-conjugated mouse anti-His (1:2500, Qiagen, Germany) diluted in assay buffer. […] Absorbance was read at 450 nm on a […] ASCENT® microtiter plate reader (Thermo Labsystems, Helsinki, Finland). Fit curves were plotted from the resulting optical density values from the ELISA plates and IC50s were calculated using Genedata Screener software (Genedata, Switzerland).
Background: An ELISA detects its analyte on a solid surface through an enzyme-linked reagent.

Assay [2] concerns the target T2, human TIGIT-AviFlag-biotin (human, UniProt Q495A1 22-141, biotin).
T2 sequence: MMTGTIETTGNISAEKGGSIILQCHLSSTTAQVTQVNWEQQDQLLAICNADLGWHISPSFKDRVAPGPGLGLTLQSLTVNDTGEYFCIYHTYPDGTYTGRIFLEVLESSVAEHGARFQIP
The assay is described as follows: Block ELISA Human PVR-Fc:Bio-TIGIT-AviFlag (blocked ligand human PVR-Fc). The protocol: as §1

The target of a further assay is T3, mouse TIGIT-His (mouse, UniProt P86176 29-148, limits assumed).
T3 sequence (looked up): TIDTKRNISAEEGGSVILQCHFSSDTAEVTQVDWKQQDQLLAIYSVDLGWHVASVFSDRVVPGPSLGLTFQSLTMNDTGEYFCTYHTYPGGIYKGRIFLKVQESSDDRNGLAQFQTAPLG
The assay is described as follows: Block ELISA Mouse PVR-Fc:TIGIT-His (blocked ligand mouse PVR-Fc). The protocol: as §1

The IC50 is the midpoint of a concentration-inhibition curve. A lower IC50 goes with greater potency.

T1 sequence (A0A7N9I9V4 entry or part of it): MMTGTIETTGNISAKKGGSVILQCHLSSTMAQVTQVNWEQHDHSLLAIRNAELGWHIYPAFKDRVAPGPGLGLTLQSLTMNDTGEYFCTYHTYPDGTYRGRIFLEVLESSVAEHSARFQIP

B1: 4.1D3.Q1E Fab (Fab, V domains shown)
VH: EVQLQQSGPGLVKPSQTLSLTCAISGDSVSSNSAAWNWIRQSPSRGLEWLGKTYYRFKWYSDYAVSVKGRITINPDTSKNQFSLQLNSVTPEDTAVFYCTRESTTYDLLAGPFDYWGQGTLVTVSS
VL: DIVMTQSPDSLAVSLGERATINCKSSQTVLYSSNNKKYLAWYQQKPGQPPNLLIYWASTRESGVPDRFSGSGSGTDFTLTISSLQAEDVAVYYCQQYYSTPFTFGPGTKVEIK
notes: also called 4.1 D3.Q1E in Fab format
Take B1: the IC50 in assay [1] is 1.5 nM; in assay [2], 6.9 nM; with mouse TIGIT-His, greater than 133 nM.
